Laboratory results published in patent publication US20260055210A1.
Values joined by “and” are separate entries in the source; they are usually repeats but may differ in a detail not shown here. Equal entries are not always repeated. One block for each substance: values may come before it.

Experiments:
[1] = molecular target: cMPL/TPO receptor on M-07e cells (human) (UniProt P40238); assay: cell-based or functional assay
[2] = molecular target: Flt3 receptor on OCI-AML5 cells (human) (UniProt P36888); assay: cell-based or functional assay
[3] = molecular target: human thrombopoietin receptor cMPL expressed on the surface of Freestyle HEK293 cells (human) (UniProt P40238); assay: flow cytometry on human cMPL-expressing HEK293 cells, fluorescent anti-IgG1 secondary antibody
[4] = molecular target: mouse thrombopoietin receptor cMPL expressed on the surface of Freestyle HEK293 cells (mouse) (UniProt Q08351); assay: flow cytometry on mouse cMPL-expressing HEK293 cells, fluorescent anti-IgG1 secondary antibody
Chain of mouse thrombopoietin receptor cMPL expressed on the surface of Freestyle HEK293 cells (mouse) (Q08351 26-625): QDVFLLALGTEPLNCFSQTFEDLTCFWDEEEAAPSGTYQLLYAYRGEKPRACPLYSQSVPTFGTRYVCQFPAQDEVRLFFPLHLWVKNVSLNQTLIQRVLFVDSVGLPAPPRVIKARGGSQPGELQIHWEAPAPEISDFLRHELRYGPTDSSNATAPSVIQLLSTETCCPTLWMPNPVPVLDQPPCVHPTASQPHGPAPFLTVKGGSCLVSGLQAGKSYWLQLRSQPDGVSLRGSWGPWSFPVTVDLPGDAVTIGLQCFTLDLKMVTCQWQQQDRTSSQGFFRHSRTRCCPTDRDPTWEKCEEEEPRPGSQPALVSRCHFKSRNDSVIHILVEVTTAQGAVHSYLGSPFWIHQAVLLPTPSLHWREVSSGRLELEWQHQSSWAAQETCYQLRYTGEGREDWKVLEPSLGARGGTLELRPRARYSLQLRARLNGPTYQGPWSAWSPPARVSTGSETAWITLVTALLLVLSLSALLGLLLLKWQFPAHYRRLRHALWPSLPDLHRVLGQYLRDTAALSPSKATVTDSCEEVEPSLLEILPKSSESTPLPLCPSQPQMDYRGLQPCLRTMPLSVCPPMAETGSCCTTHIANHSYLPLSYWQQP

Chain of Flt3 receptor on OCI-AML5 cells (human) (P36888 27-993): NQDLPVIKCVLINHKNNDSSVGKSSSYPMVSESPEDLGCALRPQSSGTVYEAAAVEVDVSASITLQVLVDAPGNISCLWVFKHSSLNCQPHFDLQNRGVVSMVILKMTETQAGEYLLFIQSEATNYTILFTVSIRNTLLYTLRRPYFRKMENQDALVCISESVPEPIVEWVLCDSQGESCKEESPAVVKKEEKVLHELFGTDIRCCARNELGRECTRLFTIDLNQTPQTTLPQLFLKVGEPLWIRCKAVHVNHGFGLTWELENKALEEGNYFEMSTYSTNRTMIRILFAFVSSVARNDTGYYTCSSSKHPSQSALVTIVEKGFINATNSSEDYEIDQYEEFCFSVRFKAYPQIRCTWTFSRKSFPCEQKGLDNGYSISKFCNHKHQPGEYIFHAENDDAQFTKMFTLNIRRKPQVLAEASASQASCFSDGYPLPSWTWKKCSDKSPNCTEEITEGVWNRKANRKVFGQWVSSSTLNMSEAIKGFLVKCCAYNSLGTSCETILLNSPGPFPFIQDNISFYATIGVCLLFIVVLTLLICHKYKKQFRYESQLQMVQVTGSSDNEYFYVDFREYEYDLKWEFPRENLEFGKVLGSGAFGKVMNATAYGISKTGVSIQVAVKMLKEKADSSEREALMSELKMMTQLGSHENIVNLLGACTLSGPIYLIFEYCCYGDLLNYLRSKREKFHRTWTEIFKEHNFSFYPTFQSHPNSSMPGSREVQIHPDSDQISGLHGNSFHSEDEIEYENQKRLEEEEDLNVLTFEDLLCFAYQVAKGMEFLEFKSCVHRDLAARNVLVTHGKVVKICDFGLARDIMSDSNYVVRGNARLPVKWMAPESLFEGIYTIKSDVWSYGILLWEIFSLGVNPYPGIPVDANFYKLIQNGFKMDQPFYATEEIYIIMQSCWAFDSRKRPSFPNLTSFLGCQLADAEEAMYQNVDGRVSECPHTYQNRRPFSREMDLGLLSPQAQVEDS

percent of M-07e cells positive for Akt phosphorylation [1]: < 5%
percent of M-07e cells positive for Erk1/2 phosphorylation at 25 ng/ml TPOm [1]: < 5%
percent of M-07e cells positive for Erk1/2 phosphorylation at 800 ng/ml TPOm [1]: 20%
Substance: thrombopoietin mimetic (TPOm) peptide

apoptosis of starved OCI-AML5 cells, Annexin V flow cytometry [2]: 53.8%
live cells, starved OCI-AML5, Annexin V flow cytometry [2]: 45.8%
percent of OCI-AML5 cells positive for Erk1/2 phosphorylation [2]: 75%
Substance: FL monomer Fc fusion polypeptide

percentage of bound cells [3]: > 30 percent and 40 percent
percentage of bound cells [4]: > 40 percent and 50 percent
Substance: FLT3L-romiplostim fusion polypeptide without a His-Tag (Fc fusion)

EC50 of M-07e cell proliferation, XTT assay [1]: 0.0121 µM
percent of M-07e cells positive for Akt phosphorylation [1]: 20%
percent of M-07e cells positive for Erk1/2 phosphorylation at 6.67 nM [1]: 60%
percent of M-07e cells positive for Erk1/2 phosphorylation at 13.33 nM [1]: 60%
percent of M-07e cells positive for Erk1/2 phosphorylation, 25 ng/ml to 800 ng/ml romiplostim [1]: 60%
percentage of bound cells [3]: > 30 percent
percentage of bound cells [4]: > 40 percent
Substance: Nplate (Romiplostim) (Fc fusion)
